From PMC3021753

T1: YeeV fused to the GAL4 DNA binding domain (pGBD-C1) (E. coli), P64524
T1 chain: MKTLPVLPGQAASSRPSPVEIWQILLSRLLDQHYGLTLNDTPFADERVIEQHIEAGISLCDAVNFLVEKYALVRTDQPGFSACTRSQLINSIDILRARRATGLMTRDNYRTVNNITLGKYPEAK

B1: MreB fused to the GAL4 activation domain, P0A9X4 1-347 (natural protein)
chain: MLKKFRGMFSNDLSIDLGTANTLIYVKGQGIVLNEPSVVAIRQDRAGSPKSVAAVGHDAKQMLGRTPGNIAAIRPMKDGVIADFFVTEKMLQHFIKQVHSNSFMRPSPRVLVCVPVGATQVERRAIRESAQGAGAREVFLIEEPMAAAIGAGLPVSEATGSMVVDIGGGTTEVAVISLNGVVYSSSVRIGGDRFDEAIINYVRRNYGSLIGEATAERIKHEIGSAYPGDEVREIEVRGRNLAEGVPRGFTLNSNEILEALQEPLTGIVSAVMVALEQCPPELASDISERGMVLTGGGALLRNLDRLLMEETGIPVVVAEDPLTCVARGGGKALEMIDMHGGDLFSEE
B2: FtsZ fused to the GAL4 activation domain (pGAD-C1), P0A9A6 1-383 (natural protein)
chain: MFEPMELTNDAVIKVIGVGGGGGNAVEHMVRERIEGVEFFAVNTDAQALRKTAVGQTIQIGSGITKGLGAGANPEVGRNAADEDRDALRAALEGADMVFIAAGMGGGTGTGAAPVVAEVAKDLGILTVAVVTKPFNFEGKKRMAFAEQGITELSKHVDSLITIPNDKLLKVLGRGISLLDAFGAANDVLKGAVQGIAELITRPGLMNVDFADVRTVMSEMGYAMMGSGVASGEDRAEEAAEMAISSPLLEDIDLSGARGVLVNITAGFDLRLDEFETVGNTIRAFASDNATVVIGTSLDPDMNDELRVTVVATGIGMDKRPEITLVTNKQVQQPVMDRYQQHGMAPLTQEQKPVAKVVNDNAPQTAKEPDYLDIPAFLRKQAD

Tests used:
[1] = molecular target: T1, YeeV fused to the GAL4 DNA binding …; assay: two-hybrid; details: remark: other sources report otherwise
[2] = molecular target: MreB fused to the GAL4 DNA binding domain (pGBD-C1) (E. coli), P0A9X4; assay: two-hybrid; details: remark: other sources report otherwise

| Binder | β-Galactosidase activity (Miller Units) [1] | β-Galactosidase activity (Miller Units) [2] |
| --- | --- | --- |
| B1 | 98 Miller Units |  |
| B2 |  | 345 Miller Units |
